This passage reports Kd results from PMC6176016 (2018).

For assay [1], the target named is BAFF (as used in microscale thermophoresis) (UniProt Q9Y275 134-285). Put plainly: MST.
Assay [2] addresses T1, FLAG-tagged multimerized MegaAPRIL.
T1 chain: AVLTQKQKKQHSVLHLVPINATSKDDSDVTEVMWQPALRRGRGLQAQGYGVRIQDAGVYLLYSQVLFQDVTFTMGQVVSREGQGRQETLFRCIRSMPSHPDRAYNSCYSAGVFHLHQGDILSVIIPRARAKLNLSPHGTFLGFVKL
Nature of the assay: MST.

BAFF (as used in microscale thermophoresis), sequence (Q9Y275 134-285): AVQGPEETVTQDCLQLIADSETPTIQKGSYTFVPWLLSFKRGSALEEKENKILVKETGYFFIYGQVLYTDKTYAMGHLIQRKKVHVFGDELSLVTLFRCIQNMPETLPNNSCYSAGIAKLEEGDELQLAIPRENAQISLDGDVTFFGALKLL

B1: FLAG-TACI-L (receptor)
chain: MSGLGRSRRGGRSRVDQEERFPQGLWTGVAMRSCPEEQYWDPLLGTCMSCKTICNHQSQRTCAAFCRSLSCRKEQGKFYDHLLRDCISCASICGQHPKQCAYFCENKLRSPVNLPPELRRQRSGEVENNSDNSGRYQGLEHRGSEASPALPGLKLSADQVALVYSTLGLCLCAVLCCFLVAVACFLKKRGDPCSCQPRSRPRQSPAKSSQDHAMEAGSPVSTSPEPVETCSFCFPECRAPTQESAVTPGTPDPTCAGRWGCHTRTTVLQPCPHIPDSGLGIVCVPAQEGGPGA
modifications: for MST only: fluorescently labeled at the N-terminus (Monolith NT Protein Labeling Kit RED-NHS)
One may read the Kd as the constant that tells how readily two partners part at equilibrium. Low readings indicate higher affinity, high ones lower affinity. As for B1, the Kd in assay [1] stood at 1080 nM; in assay [2] it was 567 nM.

B2: FLAG-tagged TACI-S, purified recombinant (receptor)
chain: MSGLGRSRRGGRSRVDQEERWSLSCRKEQGKFYDHLLRDCISCASICGQHPKQCAYFCENKLRSPVNLPPELRRQRSGEVENNSDNSGRYQGLEHRGSEASPALPGLKLSADQVALVYSTLGLCLCAVLCCFLVAVACFLKKRGDPCSCQPRSRPRQSPAKSSQDHAMEAGSPVSTSPEPVETCSFCFPECRAPTQESAVTPGTPDPTCAGRWGCHTRTTVLQPCPHIPDSGLGIVCVPAQEGGPGA
modifications: fluorescently labeled at the N-terminus (Monolith NT Protein Labeling Kit RED-NHS)
With B2, the Kd in assay [1] came out at 586 nM; in assay [2], 185 nM.
